{"source": "patent US20160138004A1", "about": "(Hoffmann-La Roche, published 2016)", "binders": {"B1": {"name": "<IGF-1>M-11.11.17 (antibody, V domains shown)", "VH": "QVQLQQSGAELVRPGSSVKISCKASGYAFSNLWMNWVKQRPGQGLEWIGQIYPGDGDTNYYGDFKGKATLTADSSSSTAYMQLSRLTSEDSAVYFCARIGYYGMDYWGQGTSVTVSS", "VL": "DVVLTQTPLSLPVNIGDEASISCKSTKSLLSSDGLTYLDWYLQKPGQSPQVLIYLVSNRFSGVPDRFSGSGSGTDFTLKISRVEAEDLGVYYCFQSNYLPTFGAGTKLELK"}}, "key": {"[1]": {"target": "T1, native recombinant human IGF-1 (human, UniProt P05019 49-118)", "T1 construct": "In the ELISAs it was biotinylated and held on streptavidin plates; also called native IGF-1; native human IGF-1 (Peprotech)", "assay": "SPR kinetics at 37 °C, clone culture supernatant, IGF-1 as analyte"}, "[2]": {"target": "T2, Thermus thermophilus SlyD-IGF-1(74-90) fusion polypeptide", "T2 construct": "also called Thermo Thermophilus SlyD-IGF-1 fusion polypeptide; Thermus thermophilus-IGF-1 fusion polypeptide", "T2 chain": "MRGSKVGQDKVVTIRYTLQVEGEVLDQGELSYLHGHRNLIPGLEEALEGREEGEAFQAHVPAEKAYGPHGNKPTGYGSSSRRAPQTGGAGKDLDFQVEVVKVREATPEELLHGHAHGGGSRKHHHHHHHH", "assay": "SPR at 37 °C, clone culture supernatant antibody captured"}, "[3]": {"target": "T1, native recombinant human IGF-1", "assay": "SPR at 37 °C, clone culture supernatant antibody captured"}, "[4]": {"target": "T2, Thermus thermophilus SlyD-IGF-1(74-90) …", "assay": "ELISA, clone culture supernatant"}, "[5]": {"target": "T2, Thermus thermophilus SlyD-IGF-1(74-90) …", "assay": "SPR at 25 °C, mAb captured, antigen as analyte"}}, "data": [{"binder": "B1", "values": [{"measurement": "Ka", "setting": "[1]", "value": "2.2e+10", "unit": "M⁻¹"}, {"measurement": "Kd", "setting": "[1]", "value": 46, "unit": "pM"}, {"measurement": "koff", "setting": "[1]", "value": 0.00014, "unit": "s⁻¹"}, {"measurement": "kon", "setting": "[1]", "value": "3.1e+06", "unit": "M⁻¹ s⁻¹"}, {"measurement": "koff", "setting": "[2]", "value": "1e-05", "unit": "s⁻¹"}, {"measurement": "koff", "setting": "[3]", "value": "1e-05", "unit": "s⁻¹"}, {"measurement": "reactivity", "setting": "[4]", "value": 2150, "unit": "mE"}, {"measurement": "Kd", "setting": "[5]", "value": 10, "unit": "pM"}, {"measurement": "koff", "setting": "[5]", "value": "1e-05", "unit": "s⁻¹"}, {"measurement": "kon", "setting": "[5]", "value": 710000, "unit": "M⁻¹ s⁻¹"}]}]}
